The text below walks through data of article PMC5427846 (Scientific Reports, 2017).

The experiment concerns the target T1, SecY without pBpa insertion (E. coli, UniProt P0AGA2 1-443).
T1 sequence (looked up): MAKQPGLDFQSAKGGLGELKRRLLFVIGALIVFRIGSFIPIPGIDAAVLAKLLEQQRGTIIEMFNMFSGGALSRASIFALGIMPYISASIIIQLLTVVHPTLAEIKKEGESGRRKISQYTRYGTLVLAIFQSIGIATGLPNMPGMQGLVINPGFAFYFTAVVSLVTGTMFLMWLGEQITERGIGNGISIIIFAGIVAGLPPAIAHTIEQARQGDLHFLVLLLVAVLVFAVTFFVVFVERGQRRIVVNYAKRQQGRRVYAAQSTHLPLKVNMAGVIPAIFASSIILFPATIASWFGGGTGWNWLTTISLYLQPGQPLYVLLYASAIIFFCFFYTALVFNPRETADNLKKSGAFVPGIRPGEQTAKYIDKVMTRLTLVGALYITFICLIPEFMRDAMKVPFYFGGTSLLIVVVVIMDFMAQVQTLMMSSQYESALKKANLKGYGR
As to the kind of experiment: cell-based or functional assay.

B1: YidC (natural protein, UniProt P25714 1-548, looked up)
chain: MDSQRNLLVIALLFVSFMIWQAWEQDKNPQPQAQQTTQTTTTAAGSAADQGVPASGQGKLISVKTDVLDLTINTRGGDVEQALLPAYPKELNSTQPFQLLETSPQFIYQAQSGLTGRDGPDNPANGPRPLYNVEKDAYVLAEGQNELQVPMTYTDAAGNTFTKTFVLKRGDYAVNVNYNVQNAGEKPLEISSFGQLKQSITLPPHLDTGSSNFALHTFRGAAYSTPDEKYEKYKFDTIADNENLNISSKGGWVAMLQQYFATAWIPHNDGTNNFYTANLGNGIAAIGYKSQPVLVQPGQTGAMNSTLWVGPEIQDKMAAVAPHLDLTVDYGWLWFISQPLFKLLKWIHSFVGNWGFSIIIITFIVRGIMYPLTKAQYTSMAKMRMLQPKIQAMRERLGDDKQRISQEMMALYKAEKVNPLGGCFPLLIQMPIFLALYYMLMGSVELRQAPFALWIHDLSAQDPYYILPILMGVTMFFIQKMSPTTVTDPMQQKIMTFMPVIFTVFFLWFPSGLVLYYIVSNLVTIIQQQLIYRGLEKRGLHSREKKKS
As for B1, the “anion to cation permeability ratio r (PCl/PK) of the FtsQ-RNC-YidC-SecYEG complex” value came to 5.1.
